# Measurements taken from the RNAGym collection of RNA variant scans (doi:10.1021/acssynbio.7b00057).
# B1: Pistol ribozyme (parent)
# chain: GGGUCGUUGUUCCAUAAUCGCGUGGAUAUGGCACGCAAGUUUCUACCGGGCACCGUAAAUGUCCGACUGGAGCCGUUCGGGCGGCUAUAAACAGACCUCAGGCCCGAAGCGUGGCGGCACCUGCCGCCGGUGGUAAAAAAGAUCGGAAGAGCACACGUCU
# Variants of: B1
# Assay: aptazyme ON/OFF ratio, guanine; higher = stronger switching; co-transcriptional cleavage with and without guanine
row,Variant,aptazyme ON/OFF ratio
1,U8C U10C U11G C12A C13G,1.21
2,U8C G9U U10G U11G C12A C13U,1.17
3,U8C G9U U10G U11G C12A C13A,1.14
4,U8C G9U U10G U11G C12A C13G,1.07
5,U8C G9U U10G U11C C12U,1.04
6,U8C G9U U10G U11C C12G,1.19
7,U8C G9U U10G U11C C12A,1.62
8,U8C G9U U10C U11G C12U C13G,1.12
9,U8C G9U U10C U11G C12U C13A,1.13
10,U8C G9U U10C U11G C12U C13U,1.25
11,U8C G9U U11G C12A C13A,1.16
12,U8C G9U U11G C12A C13G,1.18
13,U8C G9U U11G C12A C13U,1.26
14,U8C G9U U11A C13G,1.03
15,U8C G9U U11A C13A,1.27
16,U8C G9U U11A C13U,1.33
17,U8C G9U U11C C12A,1.12
18,U8C G9U U11C C12U,1.09
19,U8C G9U U11C C12G,1.24
20,U8C G9U U10G U11A C12G C13G,1.33
21,U8C G9U U10G U11A C12G C13A,1.16
22,U8C G9U U10G U11A C12G C13U,1.12
23,U8C G9U U10A U11G C12U C13U,1.2
24,U8C G9U U10A U11G C12U C13A,1.12

row,Variant,aptazyme ON/OFF ratio
1,U8C G9U U10A U11G C12U C13G,1.14
2,U8C G9U U10A U11C C12G,1.21
3,U8C G9U U10A U11C C12A,1.37
4,U8C G9U U10A U11C C12U,1.11
5,U8C G9U U11A C12G,1.36
6,U8C G9U U11A C12A,1.37
7,U8C G9U U11A C12U,1.39
8,U8C G9U U11G C12U C13G,1.15
9,U8C G9U U11G C12U C13U,1.14
10,U8C G9U U11G C12U C13A,1.16
11,U8C G9U U10G U11A,1.13
12,U8C G9U U10G U11G,2.19
13,U8C G9U U10G U11C,1.13
14,U8C U10A U11G C12U C13U,1.27
15,U8C U10A U11G C12U C13A,1.32
16,U8C U10A U11G C12U C13G,1.22
17,U8C G9U U11C C13A,1.03
18,U8C G9U U11C C13U,1.01
19,U8C G9U U11C C13G,1.03
20,U8C U10C U11C C12A C13G,1.33
21,U8C U10C U11C C12A C13U,1.36
22,U8C U10C U11C C12A C13A,1.32
23,U8C G9U U10G U11A C13A,1.1
24,U8C G9U U10G U11A C13G,1.13

row,Variant,aptazyme ON/OFF ratio
1,U8C G9U U10G U11A C13U,1.14
2,U8C G9U U10A U11C C12A C13U,1.24
3,U8C G9U U10A U11C C12A C13A,1.33
4,U8C G9U U10A U11C C12A C13G,1.08
5,U8C G9U U10G U11G C13A,1.14
6,U8C G9U U10G U11G C13G,1.13
7,U8C G9U U10G U11G C13U,1.27
8,U8C G9U U10C U11C C12A C13U,1.07
9,U8C G9U U10C U11C C12A C13G,1.62
10,U8C G9U U10C U11C C12A C13A,1.09
11,U8C U10C,2.68
12,U8C U10A,1.1
13,U8C G9U U10A U11C C12G C13G,1.28
14,U8C G9U U10A U11C C12G C13A,1.25
15,U8C G9U U10A U11C C12G C13U,1.31
16,U8C U10C U11A C12U C13U,1.35
17,U8C U10C U11A C12U C13A,1.26
18,U8C U10C U11A C12U C13G,1.23
19,U8C U10A U11G C12A C13A,1.24
20,U8C U10A U11G C12A C13G,1.26
21,U8C U10A U11G C12A C13U,1.33
22,U8C U10A U11G,1.29
23,U8C U10A U11C,1.02
24,U8C U10A U11A,1.18

row,Variant,aptazyme ON/OFF ratio
1,U8C G9U U10A U11G,1.74
2,U8C G9U U10A U11C,1.06
3,U8C U10A C13U,1.05
4,U8C U10A C13G,1.05
5,U8C U10A C13A,1.07
6,U8C G9U U10C U11C C12G C13A,1.06
7,U8C G9U U10C U11C C12G C13G,1.15
8,U8C G9U U10C U11C C12G C13U,1.07
9,U8C U10C U11A,1.63
10,U8C U10C U11C,1.85
11,U8C U10C U11G,1.42
12,U8C U10A C12A C13G,1.1
13,U8C U10A C12A C13U,1.18
14,U8C U10A C12A C13A,1.26
15,U8C U10C C12A,1.34
16,U8C U10C C12U,2.98
17,U8C U10C C12G,1.29
18,U8C U10A U11C C12A C13U,1.08
19,U8C U10A U11C C12A C13A,1.11
20,U8C U10A U11C C12A C13G,1.07
21,U8C G9U U10C U11C C13A,1.03
22,U8C G9U U10C U11C C13U,1.04
23,U8C G9U U10C U11C C13G,1.02
24,U8C G9U U10G U11A C12U C13A,1.24

row,Variant,aptazyme ON/OFF ratio
1,U8C G9U U10G U11A C12U C13U,1.31
2,U8C G9U U10G U11A C12U C13G,1.16
3,U8C G9U U10G U11C C12U C13U,1.19
4,U8C G9U U10G U11C C12U C13A,1.19
5,U8C G9U U10G U11C C12U C13G,1.11
6,U8C G9U U10G C12U C13G,1.11
7,U8C G9U U10G C12U C13A,1.28
8,U8C G9U U10G C12U C13U,1.01
9,U8C G9U U10C U11G C12A C13A,1.19
10,U8C G9U U10C U11G C12A C13G,1.17
11,U8C G9U U10C U11G C12A C13U,1.12
12,U8C U10C U11A C12A C13A,1.35
13,U8C U10C U11A C12A C13G,1.14
14,U8C U10C U11A C12A C13U,1.25
15,U8C G9U U10C C13U,1.27
16,U8C G9U U10C C13A,1.03
17,U8C G9U U10C C13G,1.04
18,U8C G9U U11A C12A C13U,1.34
19,U8C G9U U11A C12A C13G,1.16
20,U8C G9U U11A C12A C13A,1.26
21,U8C G9U U10A U11A C12U,1.48
22,U8C G9U U10A U11A C12G C13U,1.21
23,U8C G9U U11G,1.48
24,U8C G9U U11A,1.35

row,Variant,aptazyme ON/OFF ratio
1,U8C G9U U11C,1.07
2,U8C G9U U10A U11A C12U C13A,1.14
3,U8C G9U U10A U11A C12U C13G,1.2
4,U8C G9U U10A U11A C12U C13U,1.5
5,U8C G9U U10C U11G C12G C13A,1.11
6,U8C G9U U10C U11G C12G C13U,1.07
7,U8C G9U U10C U11G C12G C13G,1.15
8,U8C G9U U11G C13G,1.02
9,U8C G9U U11G C13A,1.24
10,U8C G9U U11G C13U,1.23
11,U8C G9U U10C C12A,1.19
12,U8C G9U U10C C12G,1.26
13,U8C G9U U10C C12U,1.05
14,U8C U10A U11C C12G,1.17
15,U8C U10A U11C C12A,1.08
16,U8C U10A U11C C12U,1.02
17,U8C U10C U11G C12A,1.15
18,U8C U10C U11G C12G,1.25
19,U8C G9U U11C C12A C13G,1.04
20,U8C G9U U11C C12A C13U,1.18
21,U8C G9U U11C C12A C13A,1.11
22,U8C G9U U10G U11C C12A C13A,1.22
23,U8C G9U U10G U11C C12A C13G,1.19
24,U8C G9U U10G U11C C12A C13U,1.52

row,Variant,aptazyme ON/OFF ratio
1,U8C G9U U10C C12A C13G,1.11
2,U8C G9U U10C C12A C13A,1.1
3,U8C G9U U10C C12A C13U,1.19
4,U8C U10C C12G C13U,1.33
5,U8C U10C C12G C13A,1.37
6,U8C U10C C12G C13G,1.29
7,U8C G9U U10G,2.84
8,U8C G9U U10C,1.87
9,U8C G9U U10G C12G C13U,1.3
10,U8C G9U U10G C12G C13G,1.21
11,U8C G9U U10G C12G C13A,1.3
12,U8C U10C U11C C12G C13U,1.3
13,U8C U10C U11C C12G C13G,1.35
14,U8C U10C U11C C12G C13A,1.29
15,U8C U10C U11C C12U,1.44
16,U8C U10C U11C C12G,1.18
17,U8C U10C U11C C12A,1.25
18,U8C U10A U11A C12G C13A,1.15
19,U8C U10A U11A C12G C13G,1.35
20,U8C U10A U11A C12G C13U,1.28
21,U8C U10C C12U C13G,1.26
22,U8C U10C C12U C13U,1.41
23,U8C U10C C12U C13A,1.21
